Drawing on publication PMC7771068, this text covers Kd for three molecules.

Where two headings read alike, the source gives them in different places.

What all share (assay): MST
Series [1] has as its target A3G-NTD-R24A-CTD2 (Homo sapiens, UniProt Q9HC16 1-384, R24A;P200A;L234K;N236A;C243A;P247K;F310K;Q318K;C321A;Q322K;C356A).
Series [2] deals with T1, A3G-NTD-CTD2 (wild-type NTD fused to soluble CTD2) (Homo sapiens, UniProt Q9HC16 1-384, P200A;L234K;N236A;C243A;P247K;F310K;Q318K;C321A;Q322K;C356A).
T1 sequence (Q9HC16 whole entry P200A/L234K/N236A/C243A/P247K/F310K/Q318K/C321A/Q322K/C356A, the tested form may be a part): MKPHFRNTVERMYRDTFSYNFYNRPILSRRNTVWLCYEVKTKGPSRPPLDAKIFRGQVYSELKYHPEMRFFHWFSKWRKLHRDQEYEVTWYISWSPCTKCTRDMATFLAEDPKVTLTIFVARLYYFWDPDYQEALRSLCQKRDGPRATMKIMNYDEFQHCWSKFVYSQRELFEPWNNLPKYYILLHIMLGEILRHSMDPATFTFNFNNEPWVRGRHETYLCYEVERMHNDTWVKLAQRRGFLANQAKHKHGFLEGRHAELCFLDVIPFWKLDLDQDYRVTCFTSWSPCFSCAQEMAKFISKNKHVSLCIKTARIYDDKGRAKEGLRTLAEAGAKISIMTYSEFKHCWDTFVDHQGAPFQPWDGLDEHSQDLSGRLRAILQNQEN
Series [3] addresses T1, A3G-NTD-CTD2 (wild-type NTD fused to …). This is another data set of the same source.
Series [4] shares this target. This is another data set of the same source.

Sequence of A3G-NTD-R24A-CTD2 (Q9HC16 whole entry R24A/P200A/L234K/N236A/C243A/P247K/F310K/Q318K/C321A/Q322K/C356A, the tested form may be a part): as the sequence (Q9HC16 whole entry P200A/L234K/N236A/C243A/P247K/F310K/Q318K/C321A/Q322K/C356A, the tested form may be a part) above, with R24A counted along it

The Kd is a measure of binding affinity in units of concentration. For the molecule AATCCCAATTTTTTTT (ssDNA) [16-nt CCC (5'-TCCC-polyT)], the values for the Kd in series [1], in series [2] and in series [3] were 24.6 ± 2.7 µM, 4.9 ± 0.1 µM and 6.8 µM, respectively.

AATCCCAAA (ssDNA) [9-nt CCC] returned a Kd in series [4] of 20.5 µM.

AATTCCAATTTTTTTT (ssDNA) [16-nt CC (5'-TCC-polyT)]: the Kd in series [1] worked out at 132 ± 2.6 µM; in series [2], 31.4 ± 3.8 µM.
